Assay results taken from patent US20240400677A1 (ELECTRA THERAPEUTICS, published 2024).

T1: cynomolgus monkey SIRPα on CHO cells (cynomolgus monkey, UniProt A0A2K5VYQ9 31-507)
T1 construct: whole, on cells; also called Cyno SIRPα CHO
T1 sequence: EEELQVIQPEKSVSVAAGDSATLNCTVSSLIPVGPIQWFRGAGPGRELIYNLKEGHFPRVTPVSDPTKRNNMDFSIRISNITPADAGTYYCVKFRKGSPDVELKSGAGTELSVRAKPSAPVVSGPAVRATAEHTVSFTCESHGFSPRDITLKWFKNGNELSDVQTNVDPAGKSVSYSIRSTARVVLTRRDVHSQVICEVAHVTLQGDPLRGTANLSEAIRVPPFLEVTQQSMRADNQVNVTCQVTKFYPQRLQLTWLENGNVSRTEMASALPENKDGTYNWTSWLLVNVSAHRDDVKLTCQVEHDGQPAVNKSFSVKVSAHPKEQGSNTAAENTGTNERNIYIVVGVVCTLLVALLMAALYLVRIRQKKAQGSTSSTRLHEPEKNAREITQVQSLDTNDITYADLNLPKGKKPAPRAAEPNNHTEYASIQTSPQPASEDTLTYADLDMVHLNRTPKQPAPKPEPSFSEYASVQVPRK

T2: cynomolgus monkey SIRPγ on CHO cells (cynomolgus monkey, UniProt Q9P1W8 29-386 (human entry))
T2 construct: also called Cyno SIRPγ CHO
T2 chain: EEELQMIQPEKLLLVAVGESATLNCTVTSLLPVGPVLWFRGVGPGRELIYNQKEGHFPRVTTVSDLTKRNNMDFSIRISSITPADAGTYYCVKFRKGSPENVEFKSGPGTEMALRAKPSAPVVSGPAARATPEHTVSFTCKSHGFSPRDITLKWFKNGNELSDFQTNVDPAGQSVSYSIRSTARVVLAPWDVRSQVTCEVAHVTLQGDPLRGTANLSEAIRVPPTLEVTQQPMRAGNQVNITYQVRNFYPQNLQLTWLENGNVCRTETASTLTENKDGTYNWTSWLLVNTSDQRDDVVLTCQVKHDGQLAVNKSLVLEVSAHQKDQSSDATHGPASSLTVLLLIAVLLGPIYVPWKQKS


Key:
[1] = biological target: T1, cynomolgus monkey SIRPα on CHO cells; test: flow cytometry, CHO transfectants, anti-human IgG
Protocol: (§1) Selected antibodies were tested for binding to stably transfected human SIRPγ, SIRPαV1, or SIRPβ1 (co-transfected with DAP12) Chinese hamster ovary (CHO) cells via flow cytometry. A titration of select antibodies was added to the cells and detected using a fluorescently labelled secondary anti-rat IgG antibody or anti-human IgG antibody. Graphs depict the median fluorescence intensity (MFI) at each concentration. FIGS. 5A and 5G show the binding curves of select antibodies to human SIRPγ, cynomolgus monkey SIRPγ, human SIRPα, cynomolgus monkey SIRPα, human SIRPβ1, or cynomolgus monkey SIRPβl-expressing CHO cells detected using an anti-rat IgG antibody. FIGS. 5B-5F and 5H-5L show the binding curves of select antibodies to human SIRPγ, cynomolgus monkey SIRPγ, human SIRPα, cynomolgus monkey SIRPα, human SIRPβ1, or cynomolgus monkey SIRPβ1-expressing CHO cells detected using an anti-human IgG antibody. […] For select antibodies, each myc-tagged SIRPγ scFv antibody as crude PPE was incubated with each of the SIRP-expressing cell lines stated above along with the parental CHO-K1 cell line. […] Fold change value <2.0 is considered a non-binder.

[2] = biological target: T3, human SIRPβ1 on CHO cells (co-transfected with DAP12) (human, UniProt O00241 30-398); test: flow cytometry, CHO transfectants, anti-human IgG
T3 construct: whole, on cells; co-transfected with DAP12; also called Human SIRPβ1 CHO
Protocol: as §1

[3] = biological target: T2, cynomolgus monkey SIRPγ on CHO cells; test: flow cytometry, myc-scFv PPE
Protocol: as §1

[4] = biological target: T4, human SIRPγ on stably transfected CHO cells (human, UniProt Q9P1W8 29-387); test: flow cytometry, myc-scFv PPE
T4 construct: also called Human SIRPγ CHO
Protocol: as §1

[5] = biological target: T5, human SIRPγ-His monomer protein (human, UniProt Q9P1W8 29-360); test: BLI Octet, V5-scFv PPE captured, SIRP-His 500 nM
T5 construct: also called hSIRPγ

[6] = biological target: T1, cynomolgus monkey SIRPα on CHO cells; test: flow cytometry
[7] = biological target: T3, human SIRPβ1 on CHO cells …; test: flow cytometry

T3 sequence (O00241 30-398): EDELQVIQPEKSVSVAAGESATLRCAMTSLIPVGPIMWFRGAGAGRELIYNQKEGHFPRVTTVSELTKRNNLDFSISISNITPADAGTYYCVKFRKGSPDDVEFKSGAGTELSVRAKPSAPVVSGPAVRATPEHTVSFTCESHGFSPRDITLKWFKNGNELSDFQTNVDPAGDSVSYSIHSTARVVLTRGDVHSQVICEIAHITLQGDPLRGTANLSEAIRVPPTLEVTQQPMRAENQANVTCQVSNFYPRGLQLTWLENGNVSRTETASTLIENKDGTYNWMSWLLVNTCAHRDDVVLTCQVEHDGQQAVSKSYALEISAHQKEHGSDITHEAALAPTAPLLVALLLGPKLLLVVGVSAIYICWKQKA
T5 sequence (Q9P1W8 29-360 limits assumed): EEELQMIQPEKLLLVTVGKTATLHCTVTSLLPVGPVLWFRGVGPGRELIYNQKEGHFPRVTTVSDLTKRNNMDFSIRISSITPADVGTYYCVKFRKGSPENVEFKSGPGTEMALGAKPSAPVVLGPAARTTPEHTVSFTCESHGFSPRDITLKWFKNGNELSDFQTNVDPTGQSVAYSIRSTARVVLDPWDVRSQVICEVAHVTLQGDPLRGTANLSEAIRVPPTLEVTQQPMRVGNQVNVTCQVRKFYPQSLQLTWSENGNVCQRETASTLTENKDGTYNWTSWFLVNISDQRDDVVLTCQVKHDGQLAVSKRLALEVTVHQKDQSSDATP
T4 sequence (Q9P1W8 29-387 limits assumed): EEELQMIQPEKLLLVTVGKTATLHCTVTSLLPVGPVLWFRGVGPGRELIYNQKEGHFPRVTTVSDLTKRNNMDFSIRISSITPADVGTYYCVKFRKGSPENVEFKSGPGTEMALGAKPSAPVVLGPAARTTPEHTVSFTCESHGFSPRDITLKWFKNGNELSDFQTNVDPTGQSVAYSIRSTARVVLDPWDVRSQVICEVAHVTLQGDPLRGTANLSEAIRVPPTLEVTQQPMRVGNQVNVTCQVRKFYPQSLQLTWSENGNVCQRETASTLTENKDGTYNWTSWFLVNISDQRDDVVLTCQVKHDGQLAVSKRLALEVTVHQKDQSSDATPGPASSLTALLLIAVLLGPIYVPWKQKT

Row | Binder | binding result [1] | binding result [2] | MFI fold change over parental CHO [3] [fold] | MFI fold change over parental CHO [4] [fold] | kdis [5] [s⁻¹] | binding result [6] | binding result [7]
1 | Antibody 75 (antibody, V domains shown) VH: QVQLVQSGAEVKKPGSSVKVSCKASGGTFSNYAISWVRQAPGQGLEWMGGIIPIFGSTASYAQKFQGRVTITADESTSTAYMELSSLRSEDTAVYYCARGVGDDTLTDWGQGTLVTVSS VL: DIVMTQSPLSLPVTPGEPASISCRSSQSLLHSNGYNYLDWYLQKPGQSPQLLIYAASSLQSGVPDRFSGSGSGTDFTLKISRVEAEDVGVYYCMQALQTPLTFGGGTKVEIK | no binding (tested: about 20 µg/mL) | no binding (tested: about 20 µg/mL) | – | – | – | – | –
2 | Antibody 36 (scFv, V domains shown, scFv in crude PPE, V5/myc-tagged) VH: QVQLVQSGAEVKKPGASVKVSCKASGYTFTDNYLHWVRQAPGQGLEWMGIIETSGGSTDYAQKFQGRVTMTRDTSTSTVYMELSSLRSEDTAVYYCARSFGGYSYDDAFDIWGQGTTVTVSS VL: DIQMTQSPSSLSASVGDRVTITCQASQGISNYLNWYQQKPGKAPKLLIYAASSLQSGVPSRFSGSGSGTDFTLTISSLQPEDFATYYCQQSYSSPYTFGQGTKVEIK | – | – | 37.7 | 42.4 | < 0.001 | no binding (tested: fold change <2.0) | no binding (tested: fold change <2.0)
3 | Antibody 38 (scFv, V domains shown, scFv in crude PPE, V5/myc-tagged) VH: QVQLVQSGAEVKKPGASVKVSCKASGGTFSSYDINWVRQAPGQGLEWMGWMNPNSGNTGYAQKFQGRVTMTRDTSTSTVYMELSSLRSEDTAVYYCARDLTLYCSSTSCLDAFDYWGQGTLVTVSS VL: not shown | – | – | 16.7 | 14.8 | 0.001 to 0.01 | no binding (tested: fold change <2.0) | no binding (tested: fold change <2.0)
4 | Antibody 39 (scFv, V domains shown, scFv in crude PPE, V5/myc-tagged) VH: QVQLVQSGAEVKKPGASVKVSCKASGGTFSNYGFSWVRQAPGQGLEWMGWMSPSSGNTGYAQKFQGRVTMTRDTSTSTVYMELSSLRSEDTAVYYCARERSGSYFDYWGQGTLVTVSS VL: EIVMTQSPATLSVSPGERATLSCRASQSVSSYLAWYQQKPGQAPRLLIYGTSTRATGIPARFSGSGSGTEFTLTISSLQSEDFAVYYCQQYGSLPFTFGQGTRLEIK | – | – | 39.5 | 16.4 | 0.001 to 0.01 | no binding (tested: fold change <2.0) | no binding (tested: fold change <2.0)
5 | Antibody 44 (scFv, V domains shown, scFv in crude PPE, V5/myc-tagged) VH: QVQLVQSGAEVKKPGSSVKVSCKASGGTFSKIAVSWVRQAPGQGLEWMGLINPNSGGTDYAQKFQGRVTITADESTSTAYMELSSLRSEDTAVYYCAKDFRGGDYYYYGMDVWGQGTTVTVSS VL: EIVMTQSPATLSVSPGERATLSCRASQSVSSNLAWYQQKPGQAPRLLIYGASTRATGIPARFSGSGSGTEFTLTISSLQSEDFAVYYCQQYNTYPITFGQGTKVEIK | – | – | 26.7 | 16 | > 0.01 | no binding (tested: fold change <2.0) | no binding (tested: fold change <2.0)
6 | Antibody 45 (scFv, V domains shown, scFv in crude PPE, V5/myc-tagged) VH: QVQLVQSGAEVKKPGASVKVSCKASGYTFTSYGISWVRQAPGQGLEWMGWISAYNGNTNYAQKFQGRVTMTRDTSTSTVYMELSSLRSEDTAVYYCARGTYYDYIWGSYRYSWFDYWGQGTLVTVSS VL: not shown | – | – | 18.2 | 24.3 | > 0.01 | no binding (tested: fold change <2.0) | no binding (tested: fold change <2.0)
7 | Antibody 48 (scFv, V domains shown, scFv in crude PPE, V5/myc-tagged) VH: QVQLVQSGAEVKKPGASVKVSCKASGYTFTSYYMHWVRQAPGQGLEWMGWMNPNSGNTGYAQKFQGRVTMTRDTSTSTVYMELSSLRSEDTAVYYCARDQMYSSYGMDVWGQGTTVTVSS VL: DIQMTQSPSSLSASVGDRVTITCRASESITNWLAWYQQKPGKAPKLLIYKASSLESGVPSRFSGSGSGTDFTLTISSLQPEDFATYYCQQSYGTPYTFGQGTKVEIK | – | – | 9.25 | 12.1 | 0.001 to 0.01 | no binding (tested: fold change <2.0) | no binding (tested: fold change <2.0)
8 | Antibody 51 (scFv, V domains shown, scFv in crude PPE, V5/myc-tagged) VH: QVQLVQSGAEVKKPGASVKVSCKASGYTFTRYDINWVRQAPGQGLEWMGWMNPNSGNTGYAQKLQGRVTMTRDTSTSTVYMELSSLRSEDTAVYYCARERVGYCSSTSCLHPLDYWGQGTLVTVSS VL: DIQMTQSPSSLSASVGDRVTITCRASQGIRNDLGWYQQKPGKAPKLLIYSASNLQSGVPSRFSGSGSGTDFTLTISSLQPEDFATYYCQQSYDVPLTFGGGTKVEIK | – | – | 18.8 | 20 | 0.001 to 0.01 | no binding (tested: fold change <2.0) | no binding (tested: fold change <2.0)
9 | Antibody 52 (scFv, V domains shown, scFv in crude PPE, V5/myc-tagged) VH: QVQLVQSGAEVKKPGASVKVSCKASGYTFTSYDINWVRQAPGQGLEWMGWISGYNGNTNYAQKFQGRVTMTRDTSTSTVYMELSSLRSEDTAVYYCARSFDWLLLLDYWGQGTLVTVSS VL: DIQMTQSPSSLSASVGDRVTITCRASQSISSWLAWYQQKPGKAPKLLIYDATTLESGVPSRFSGSGSGTDFTLTISSLQPEDFATYYCQQYDSYPWTFGQGTKLEIK | – | – | 16.3 | 14.7 | > 0.01 | no binding (tested: fold change <2.0) | no binding (tested: fold change <2.0)
10 | Antibody 53 (scFv, V domains shown, scFv in crude PPE, V5/myc-tagged) VH: QVQLVQSGAEVKKPGASVKVSCKASGHTFNNNYIHWVRQAPGQGLEWMGIINPSGGSTSYAQKFQGRVTMTRDTSTSTVYMELSSLRSEDTAVYYCARQIQDYGYYYYGMDVWGQGTTVTVSS VL: EIVMTQSPATLSVSPGERATLSCRASQSVSKYLAWYQQKPGQAPRLLIYAISARAAGIPARFSGSGSGTEFTLTISSLQSEDFAVYYCQQYYSSPPTFGQGTKVEIK | – | – | 6.94 | 5.97 | > 0.01 | no binding (tested: fold change <2.0) | no binding (tested: fold change <2.0)
